Assay results reported in the Human Domainome abundance scans (Beltran et al. 2025).
± gives the uncertainty stated by the source.

B1: Tyrosine-protein kinase BTK, residues 215 to 273; numbered along this chain, Q06187 (parent)
chain: ELKKVVALYDYMPMNANDLQLRKGDEYFILEESNLPWWRARDKNGQEGYIPSNYVTEAE

Variants of: B1
Assay: abundance fitness (aPCA) (normalised: wild type 0, dead -1); higher = more abundant; growth selection in yeast, the domain comes from the species named
Details: Homo sapiens

Abundance fitness, by site and new letter:
G48: Y -0.968 ± 0.15, P -0.68 ± 0.088, D -0.791 ± 0.11, Q -0.845 ± 0.075, N -0.97 ± 0.17, M -0.946 ± 0.078, T -0.886 ± 0.069, L -0.993 ± 0.052, H -0.856 ± 0.13, A -0.825 ± 0.073, W -1.02 ± 0.087, C -0.793 ± 0.096, V -0.92 ± 0.063, F -0.725 ± 0.066, R -0.827 ± 0.052, I -1.13 ± 0.18, S -0.862 ± 0.057, K -0.8 ± 0.069, E -0.895 ± 0.12
I50: F -0.121 ± 0.082, V -0.014 ± 0.038, N -0.92 ± 0.17, Y -0.757 ± 0.1, E -0.95 ± 0.08, Q -1.2 ± 0.18, G -0.876 ± 0.07, K -1.02 ± 0.15, S -1.05 ± 0.12, M -0.291 ± 0.054, R -1.01 ± 0.091, L -0.043 ± 0.035, H -0.592 ± 0.17
E47: W -0.104 ± 0.044, Q -0.113 ± 0.059, L -0.163 ± 0.035, D -0.011 ± 0.08, M -0.156 ± 0.05, V -0.05 ± 0.041, K -0.107 ± 0.061, R -0.244 ± 0.036, G -0.451 ± 0.05, F -0.235 ± 0.055, N -0.115 ± 0.067, H -0.219 ± 0.07, I -0.142 ± 0.072, P -0.473 ± 0.056, Y -0.268 ± 0.057, A -0.086 ± 0.051, T -0.061 ± 0.042
K43: H -0.026 ± 0.086, Q 0.009 ± 0.057, S -0.016 ± 0.043, I 0.049 ± 0.066, C -0.033 ± 0.056, N -0.018 ± 0.085, M 0.021 ± 0.056, E -0.005 ± 0.047, G 0.004 ± 0.029, P -0.098 ± 0.061, V -0.001 ± 0.037, R -0.033 ± 0.033, A 0.031 ± 0.038, T -0.016 ± 0.049, F -0.11 ± 0.072, D -0.094 ± 0.057, L -0.029 ± 0.045
N53: K -0.025 ± 0.052, M -0.079 ± 0.048, Y -0.202 ± 0.071, I -0.238 ± 0.091, T -0.054 ± 0.052, A -0.005 ± 0.044, E -0.016 ± 0.041, Q -0.041 ± 0.067, R -0.03 ± 0.04, H -0.123 ± 0.11, S -0.006 ± 0.04, L -0.099 ± 0.037, C -0.164 ± 0.077, F -0.137 ± 0.066, D -0.043 ± 0.065, V -0.004 ± 0.038, W -0.137 ± 0.054
P51: S -0.186 ± 0.043, C -0.126 ± 0.059, Y -0.04 ± 0.14, R -0.069 ± 0.033, H -0.04 ± 0.097, N -0.102 ± 0.084, F -0.054 ± 0.077, D -0.196 ± 0.13, T -0.528 ± 0.067, L -0.056 ± 0.041, G -0.286 ± 0.034, V -0.379 ± 0.038, A -0.216 ± 0.049, W -0.164 ± 0.045, I -0.581 ± 0.12, E -0.373 ± 0.047, Q -0.128 ± 0.055, M -0.123 ± 0.055, K -0.106 ± 0.05
R39: A -0.179 ± 0.043, F -0.069 ± 0.057, G -0.36 ± 0.036, V -0.065 ± 0.033, S -0.089 ± 0.039, P -0.187 ± 0.073, Y -0.171 ± 0.07, H -0.116 ± 0.11, K -0.064 ± 0.051, C -0.181 ± 0.054, L -0.062 ± 0.038, E -0.199 ± 0.046, T -0.111 ± 0.06, W -0.042 ± 0.046, Q -0.031 ± 0.06
Y49: Q 0.064 ± 0.063, H -0.074 ± 0.074, K -0.056 ± 0.063, P -0.374 ± 0.054, T -0.019 ± 0.05, L 0.003 ± 0.033, I 0.001 ± 0.061, S -0.046 ± 0.042, V -0.018 ± 0.038, D -0.032 ± 0.065, F -0.033 ± 0.057, R 0.04 ± 0.036, C -0.024 ± 0.053, W -0.026 ± 0.047, M 0.023 ± 0.047, A -0.037 ± 0.049, E -0.088 ± 0.057
D42: C -0.119 ± 0.055, Y -0.889 ± 0.092, L -0.81 ± 0.052, I -0.995 ± 0.14, E -0.23 ± 0.044, G -0.103 ± 0.036, F -0.843 ± 0.076, K -0.575 ± 0.085, R -0.673 ± 0.063, A 0.017 ± 0.042, N -0.081 ± 0.071, T -0.065 ± 0.05, H -0.321 ± 0.075, P -0.936 ± 0.12, S -0.07 ± 0.039, M -0.498 ± 0.055
V55: E -0.617 ± 0.07, W -0.784 ± 0.069, A -0.32 ± 0.05, N -0.808 ± 0.21, H -0.852 ± 0.11, Y -0.836 ± 0.15, S -0.695 ± 0.05, L -0.292 ± 0.042, D -0.891 ± 0.11, K -0.833 ± 0.12, T -0.12 ± 0.06, Q -0.945 ± 0.16, M -0.284 ± 0.079, F -0.318 ± 0.061, C -0.083 ± 0.048, G -0.827 ± 0.056, R -0.905 ± 0.063
W37: V 0.013 ± 0.037, H 0.014 ± 0.062, Q 0.021 ± 0.058, K 0.027 ± 0.056, G -0.134 ± 0.036, Y -0.018 ± 0.054, C 0.029 ± 0.05, E 0.011 ± 0.054, L -0.014 ± 0.032, P -0.227 ± 0.052, T 0.036 ± 0.045, M 0.006 ± 0.044, I -0.097 ± 0.071, A -0.03 ± 0.047, S -0.017 ± 0.036, F -0.011 ± 0.051, D -0.129 ± 0.056
N44: W -0.056 ± 0.065, V -0.054 ± 0.049, F -0.026 ± 0.051, R -0.067 ± 0.043, Q -0.016 ± 0.051, D -0.01 ± 0.066, T 0.029 ± 0.051, H -0.063 ± 0.072, S -0.05 ± 0.049, E -0.009 ± 0.061, A -0.041 ± 0.055, K 0.07 ± 0.082, C -0.019 ± 0.076, L -0.023 ± 0.042, G 0.017 ± 0.046, I 0.036 ± 0.099, M -0.061 ± 0.095
S52: N -0.026 ± 0.072, D -0.232 ± 0.063, Y -0.226 ± 0.067, M 0.019 ± 0.07, V -0.023 ± 0.044, I -0.053 ± 0.066, F -0.108 ± 0.049, E -0.065 ± 0.066, W -0.03 ± 0.049, P -0.005 ± 0.055, T -0.058 ± 0.051, K 0.088 ± 0.071, G -0.028 ± 0.036, Q -0.032 ± 0.06, A -0.009 ± 0.047, R -0.008 ± 0.038
P36: W -0.17 ± 0.051, I -0.294 ± 0.29, R -0.029 ± 0.032, K 0.011 ± 0.072, N -0.075 ± 0.071, Q 0.002 ± 0.054, T -0.1 ± 0.058, V -0.077 ± 0.055, S -0.013 ± 0.038, L -0.094 ± 0.058, Y -0.148 ± 0.058
A40: Y -0.734 ± 0.086, V -0.047 ± 0.04, N -0.981 ± 0.14, I -0.266 ± 0.076, M -0.334 ± 0.047, K -1.07 ± 0.18, W -1.02 ± 0.087, P -1.16 ± 0.14, Q -0.758 ± 0.093, F -0.892 ± 0.1, C -0.121 ± 0.041, E -0.965 ± 0.11, D -0.952 ± 0.17, S -0.298 ± 0.038, T -0.456 ± 0.057, L -0.181 ± 0.034, R -0.825 ± 0.044, H -0.674 ± 0.14, G -0.047 ± 0.035
Y54: Q -0.153 ± 0.066, N -0.266 ± 0.065, K -0.159 ± 0.07, P -0.93 ± 0.099, S 0.022 ± 0.037, D -0.562 ± 0.094, G 0.037 ± 0.042, R -0.078 ± 0.033, A 0.02 ± 0.05, T -0.235 ± 0.059, F 0.101 ± 0.066, W -0.074 ± 0.06, V -0.203 ± 0.048, L -0.109 ± 0.034, H -0.009 ± 0.066, C -0.037 ± 0.05, I -0.228 ± 0.075, M 0.035 ± 0.066
G45: I -0.809 ± 0.15, F -0.173 ± 0.073, L -0.08 ± 0.038, T -0.425 ± 0.062, Y -0.062 ± 0.072, C -0.162 ± 0.064, W -0.224 ± 0.036, N 0.008 ± 0.093, K -0.125 ± 0.053, Q -0.144 ± 0.05, E -0.156 ± 0.045, R -0.16 ± 0.032, D -0.057 ± 0.065, P -1.05 ± 0.15, A -0.073 ± 0.04, V -0.641 ± 0.046, H -0.118 ± 0.12, S -0.125 ± 0.04
Q46: G -0.036 ± 0.045, V 0.044 ± 0.037, A 0.014 ± 0.051, D -0.077 ± 0.079, W -0.161 ± 0.045, F -0.028 ± 0.06, N 0.007 ± 0.075, H 0.04 ± 0.069, C 0.029 ± 0.055, T -0.048 ± 0.052, R -0.016 ± 0.035, Y -0.127 ± 0.087, P -0.616 ± 0.073, L -0.014 ± 0.031, E -0.005 ± 0.073, S -0.065 ± 0.043, I 0.047 ± 0.061, M -0.053 ± 0.044
R41: Y -0.234 ± 0.11, C -0.027 ± 0.078, A -0.111 ± 0.041, Q -0.006 ± 0.057, D -1.08 ± 0.2, N -0.674 ± 0.12, G -0.317 ± 0.042, P -0.976 ± 0.12, S -0.108 ± 0.039, I -0.158 ± 0.088, F -0.142 ± 0.064, M -0.003 ± 0.058, W -0.19 ± 0.047, L -0.072 ± 0.036, V -0.132 ± 0.046, E -0.305 ± 0.069, T -0.097 ± 0.04
W38: D -0.157 ± 0.093, N -0.098 ± 0.056, P -0.038 ± 0.043, L -0.005 ± 0.029, C -0.027 ± 0.048, G -0.22 ± 0.043, V 0.022 ± 0.035, Q -0.019 ± 0.05, M 0.017 ± 0.037, A -0.017 ± 0.061, H -0.029 ± 0.071, K -0.008 ± 0.043, F -0.031 ± 0.043, S 0.042 ± 0.032, Y 0.044 ± 0.063, T -0.009 ± 0.037
